The values below come from US20180155451A1 (published 2018).

The target of one assay is T1, FcgRIIIa F (human, UniProt P08637 17-208).
T1 construct: extracellular domain; also called FcγRIIIa F; 3aF; not shown: His tag attached to the C terminus
Description: SPR (Biacore); binding of the heterodimerized antibody relative to GpH7-A5/GpH7-B3/GpL16-k0 = 100.

Assay [1] concerns the target T2, FcγRIIIa F type extracellular domain with C-terminal His tag (human, UniProt P08637 17-208).
T2 construct: extracellular domain; also called FcgRIIIa F; FcgRIIIaF; not shown: His tag at the C terminus
Description: SPR (Biacore), antibody captured on chip, soluble FcgR as analyte; experiment 1. As to the method:
(§1) Antibodies of interest were analyzed for the interaction to FcgR according to the method described in Reference Example 8.
(§2) Analysis of interaction between obj ective antibody and the FcγR was carried out using Biacore T100 (GE Healthcare), Biacore T200, Biacore A100, and Biacore 4000. HBS-EP+ (GE Healthcare) was used as the running buffer, and the measurement temperature was set to 25° C. Chips produced by immobilizing the antigen peptide by the amine coupling method to a Series S sensor Chip CM5 (GE Healthcare), chips produced by allowing preliminarily biotinylated antigen peptides to interact with and immobilize onto a Series S Sensor Chip SA (certified) (GE Healthcare), chips produced by immobilizing Protein L (ACTIGEN, BioVision) to Series S Sencor Chip CM5 (GE Healthcare), or chips produced by immobilizing Protein A/G (Thermo Scientific) to Series S Sencor Chip CM5 (GE Healthcare) were used. Antibodies of interest were captured onto these chips, and allowed to interact to each FcγR diluted with running buffer. To regenerate and repeatedly use the chip, the antibodies captured onto the chip were washed off by reacting 10 mM glycine-HCl, pH 1.5.

Assay [2] concerns the target T3, FcγRIa extracellular domain with C-terminal His tag (human, UniProt P12314 16-292).
T3 construct: extracellular domain; also called FcgRI; FcgRIa; not shown: His tag at the C terminus
Described as above. How it is done: as §1, §2

For assay [3], the target named is T4, FcγRIIIa V type extracellular domain with C-terminal His tag (human, UniProt P08637 17-208).
T4 construct: extracellular domain; also called FcgRIIIa V; FcgRIIIaV; not shown: His tag at the C terminus
The assay is described as above. How it is done: as §1, §2

Assay [4] has as its target T5, FcγRIIa H type extracellular domain with C-terminal His tag (human, UniProt P12318 34-217).
T5 construct: extracellular domain; also called FcgRIIa H; FcgRIIaH; not shown: His tag at the C terminus
T5 sequence (looked up): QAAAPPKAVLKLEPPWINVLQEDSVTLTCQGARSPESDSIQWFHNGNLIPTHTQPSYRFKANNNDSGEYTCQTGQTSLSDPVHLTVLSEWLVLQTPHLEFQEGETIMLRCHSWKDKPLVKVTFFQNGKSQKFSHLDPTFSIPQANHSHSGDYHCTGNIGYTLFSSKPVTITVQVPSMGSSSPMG
Described as above. How it is done:
as §1, §2

Assay [5] has as its target T6, FcγRIIa R type extracellular domain with C-terminal His tag (human, UniProt P12318 34-217).
T6 construct: extracellular domain; also called FcgRIIa R; FcgRIIaR; not shown: His tag at the C terminus
T6 sequence (looked up): T5 sequence (looked up) with H134R
Described as above. How it is done: as §1, §2

Assay [6] deals with T7, FcγRIIb extracellular domain with C-terminal His tag (human, UniProt P31994 43-217).
T7 construct: extracellular domain; also called FcgRIIb; 2b; not shown: His tag at the C terminus
T7 sequence (looked up): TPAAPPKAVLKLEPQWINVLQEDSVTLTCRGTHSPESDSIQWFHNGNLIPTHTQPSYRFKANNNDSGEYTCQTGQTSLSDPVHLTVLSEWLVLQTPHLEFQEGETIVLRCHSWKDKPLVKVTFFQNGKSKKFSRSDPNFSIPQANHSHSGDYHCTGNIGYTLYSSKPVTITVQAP
The assay is described as above. How it is done: as §1, §2

Residue numbers refer to the chain shown, from its start. Names and notes keep the numbering of the source.

T3 sequence (P12314 16-292): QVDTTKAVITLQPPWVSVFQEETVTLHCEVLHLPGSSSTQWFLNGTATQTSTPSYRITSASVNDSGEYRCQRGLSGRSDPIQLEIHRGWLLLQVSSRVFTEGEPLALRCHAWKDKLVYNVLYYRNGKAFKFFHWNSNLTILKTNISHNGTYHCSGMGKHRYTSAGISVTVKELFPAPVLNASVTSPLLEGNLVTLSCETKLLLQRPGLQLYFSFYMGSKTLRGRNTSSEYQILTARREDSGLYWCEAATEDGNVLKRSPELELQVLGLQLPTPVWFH
T2 sequence (P08637 17-208): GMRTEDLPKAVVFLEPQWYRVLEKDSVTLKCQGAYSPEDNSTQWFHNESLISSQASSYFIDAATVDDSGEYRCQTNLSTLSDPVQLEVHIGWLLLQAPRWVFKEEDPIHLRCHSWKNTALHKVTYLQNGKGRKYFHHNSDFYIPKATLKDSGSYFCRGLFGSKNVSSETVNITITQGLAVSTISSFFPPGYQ
T1 sequence (P08637 17-208): as above
T4 sequence (P08637 17-208 F176V): as the sequence (P08637 17-208) above, with F160V counted along it

B1: GpH7-A5/GpH7-B3 variant (A330M)/GpL16-k0 (antibody, human IgG1, kappa)
heavy 1: not shown
heavy 2: not shown
light: DIVMTQSPLSLPVTPGEPASISCQASESLVHSNRNTYLHWYLQKPGQSPQLLIYKVSNRFSGVPDRFSGSGSGTDFTLKISRVEAEDVGVYYCSQNTHVPPTFGQGTKVEIERTVAAPSVFIFPPSDEQLKSGTASVVCLLNNFYPREAKVQWKVDNALQSGNSQESVTEQDSKDSTYSLSSTLTLSKADYEKHKVYACEVTHQGLSSPVTKSFNRGEC
notes: also called A330_06M; He Ab
In the assay with FcgRIIIa F, B1 came in with a He/Con_3aF of 139.

B2: GpH7-A5/GpH7-B3 variant (H268E)/GpL16-k0 (antibody, human IgG1, kappa)
heavy 1: not shown
heavy 2: not shown
light: B1 light
notes: also called H268_10E; He Ab
The molecule B2 returned a He/Con_3aF with FcgRIIIa F of 184.

B3: GpH7-A5/GpH7-B3 variant (K326T)/GpL16-k0 (antibody, human IgG1, kappa)
heavy 1: not shown
heavy 2: not shown
light: B1 light
notes: also called K326_14T; He Ab
As to B3, the He/Con_3aF with FcgRIIIa F turned out to be 140.

B4: GpH7-A5/GpH7-B3 variant (S298A)/GpL16-k0 (antibody, human IgG1, kappa)
heavy 1: not shown
heavy 2: not shown
light: B1 light
notes: also called S298_02A; GpH7-A5/GpH7-B3-15-02A/GpL16-k0
In turn, B4 yielded a He/Con_3aF with FcgRIIIa F of 151.

B5: GpH7-A5/GpH7-B3 variant (K334D)/GpL16-k0 (antibody, human IgG1, kappa)
heavy 1: not shown
heavy 2: not shown
light: B1 light
notes: also called K334_09D; He Ab
As for B5, the He/Con_3aF with FcgRIIIa F was determined as 164.

B6: GpH7-A5/GpH7-B3 variant (K334I)/GpL16-k0 (antibody, human IgG1, kappa)
heavy 1: not shown
heavy 2: not shown
light: B1 light
notes: also called K334_07I; He Ab
For the molecule B6, in the assay with FcgRIIIa F, the He/Con_3aF was determined as 156.

B7: GpH7-A5/GpH7-B3 variant (A330P)/GpL16-k0 (antibody, human IgG1, kappa)
heavy 1: not shown
heavy 2: not shown
light: B1 light
notes: also called A330_05P; He Ab
B7 yielded a He/Con_3aF with FcgRIIIa F of 152.

B8: GpH7-A5/GpH7-B3 variant (K326I)/GpL16-k0 (antibody, human IgG1, kappa)
heavy 1: not shown
heavy 2: not shown
light: B1 light
notes: also called K326_07I; He Ab
B8 returned a He/Con_3aF with FcgRIIIa F of 153.

B9: GpH7-A5/GpH7-B3 variant (K334E)/GpL16-k0 (antibody, human IgG1, kappa)
heavy 1: not shown
heavy 2: not shown
light: B1 light
notes: also called K334_10E; He Ab
With B9, in the assay with FcgRIIIa F, the He/Con_3aF was 186.

B10: GpH7-A5/GpH7-B3 variant (K326D)/GpL16-k0 (antibody, human IgG1, kappa)
heavy 1: not shown
heavy 2: not shown
light: B1 light
notes: also called K326_09D; He Ab
B10: in the assay with FcgRIIIa F, the He/Con_3aF was 148.

B11: GpH7-A5/GpH7-B3 variant (H268A)/GpL16-k0 (antibody, human IgG1, kappa)
heavy 1: not shown
heavy 2: not shown
light: B1 light
notes: also called H268_02A; He Ab
With B11, in the assay with FcgRIIIa F, the He/Con_3aF was determined as 121.

B12: H240-FA012/H240-FB056/L73-k0 (antibody, human IgG1, kappa)
heavy 1: QDQLVQSGAEVKKPGASVKVSCKASGFNIKDTYIQWVRQAPGQGLEWMGRIDPLRKQTKYREKFEGRVTITADTSTNTAYMELSSLRSEDTAVYYCVRSGREFDYWGQGTLVTVSSASTKGPSVFPLAPSSKSTSGGTAALGCLVKDYFPEPVTVSWNSGALTSGVHTFPAVLQSSGLYSLSSVVTVPSSSLGTKTYICNVNHKPSNTKVDKKVEPKSCDKTHTCPPCPAPEYYWGPSVFLFPPKPKDTLMISRTPEVTCVVVDVSDEEPKVKFNWYVDGVEVHNAKTKPREEQYNATYRVVSVLTVLHQDWLNGKEYKCKVSNKALPAPIEKTISKAKGQPREPQVYTLPPSRKEMTKNQVSLTCLVKGFYPSDIAVEWESNGQPENNYKTTPPVLDSDGSFFLYSKLTVDKSRWQQGNVFSCSVMHEALHNRYTQKSLSLSP
heavy 2: QDQLVQSGAEVKKPGASVKVSCKASGFNIKDTYIQWVRQAPGQGLEWMGRIDPLRKQTKYREKFEGRVTITADTSTNTAYMELSSLRSEDTAVYYCVRSGREFDYWGQGTLVTVSSASTKGPSVFPLAPSSKSTSEGTAALGCLVEDYFPEPVTVSWNSGALTSGVHTFPAVLQSSGLYSLSSVVTVPSSSLGTQTYICNVDHKPSNTKVDKKVEPKSCDKTHTCPPCPAPELLGGPSVFLFPPKPKDTLMISRTPEVTCVVVDVSHEEPEVQFNWYVDGVEVHNAETKPREEQYNSTYRVVSVLTVLHQDWLNGKEYKCKVSNDALPMPIEETISKAKGQPREPQVYTLPPSREEMTKNQVSLTCLVKGFYPSDIAVEWESNGQPENNYKTTPPVLDSDGSFFLYSKLTVDKSRWQQGNVFSCSVMHEALHNHYTQESLSLSP
light: DIQMTQSPSSLSASVGDRVTITCRASQDIHKYIAWYQQKPGQAPRLLIQYTSTLQPGVPSRFSGSGSGTDYTFTISSLQPEDIATYYCLQYEQLRTFGGGTKVEIKRTVAAPSVFIFPPSDEQLKSGTASVVCLLNNFYPREAKVQWKVDNALQSGNSQESVTEQDSKDSTYSLSSTLTLSKADYEKHKVYACEVTHQGLSSPVTKSFNRGEC
notes: Heterodimerized anti-EREG IgG1 antibody; A chain altered from H240-AK072, B chain altered from H240-BH076
A word on the Kd: it is the concentration at which binding is half-saturated. Turning to B12, the Kd in assay [1] was 5 nM; in assay [2] it was 0.1 nM; in assay [3], 1.3 nM; in assay [4] it was 86 nM; in assay [5] it was 280 nM; in assay [6], 1400 nM.

B13: H240-FA024/H240-FB082/L73-k0 (antibody, human IgG1, kappa)
heavy 1: B12 heavy 1 with I198T, M357K
heavy 2: B12 heavy 2 with E136G, G137E, D202N, N383E
light: B12 light
notes: as for B12
In the case of B13, the Kd in assay [1] came to 4.6 nM; in assay [2] it was 0.13 nM; in assay [3], 1.3 nM; in assay [4] it was 80 nM; in assay [5], 240 nM; in assay [6], 1500 nM.

B14: H240-FA024/H240-FB059/L73-k0 (antibody, human IgG1, kappa)
heavy 1: B12 heavy 1 with I198T, M357K
heavy 2: B12 heavy 2 with E136G, G137E, D202N
light: B12 light
notes: as for B12
Consider B14, for which the Kd in assay [1] worked out at 4.4 nM; in assay [2], 0.089 nM; in assay [3], 1.3 nM; in assay [4], 93 nM; in assay [5], 290 nM; in assay [6] it was 1600 nM.

B15: H240-FA030/H240-FB065/L73-k0 (antibody, human IgG1, kappa)
heavy 1: B12 heavy 1 with I198T
heavy 2: B12 heavy 2 with G137S, E146K, S191N, L192F, I198T, K213T
light: B12 light
notes: as for B12
Consider B15, for which the Kd in assay [1] is 4.6 nM; in assay [2], 0.1 nM; in assay [3], 1.1 nM; in assay [4], 99 nM; in assay [5], 340 nM; in assay [6], 2400 nM.

B16: H240-FA030/H240-FB064/L73-k0 (antibody, human IgG1, kappa)
heavy 1: B12 heavy 1 with I198T
heavy 2: B12 heavy 2 with G137S, E146K, S191N, L192F, I198T, K213T, E287K
light: B12 light
notes: as for B12
With B16, the Kd was 5.3 nM in assay [1]; 0.057 nM in assay [2]; 1.5 nM in assay [3]; 96 nM in assay [4]; 290 nM in assay [5]; 1800 nM in assay [6].

B17: H240-FA024/H240-FB064/L73-k0 (antibody, human IgG1, kappa)
heavy 1: B12 heavy 1 with I198T, M357K
heavy 2: B12 heavy 2 with G137S, E146K, S191N, L192F, I198T, K213T, E287K
light: B12 light
notes: as for B12
B17: the Kd in assay [1] amounted to 4.7 nM; in assay [2], 0.095 nM; in assay [3], 1.3 nM; in assay [4], 110 nM; in assay [5] it was 330 nM; in assay [6] it was 1900 nM.

B18: H240-FA030/H240-FB082/L73-k0 (antibody, human IgG1, kappa)
heavy 1: B12 heavy 1 with I198T
heavy 2: B12 heavy 2 with E136G, G137E, D202N, N383E
light: B12 light
notes: as for B12
For B18, the dissociation constant (Kd) was determined as 4.3 nM in assay [1]; 0.092 nM in assay [2]; 1.3 nM in assay [3]; 88 nM in assay [4]; 300 nM in assay [5]; 1900 nM in assay [6].
